Patent publication US20030091568A1, “Inhibitors for the formation of soluble human CD23” (priority 2000, published 2003)
Like-named read-outs stand apart in the source and are kept apart here. Each block holds one molecule with its values, some of them ahead of it.

Tests used:
[1] = biological target: T1, human CD23b (full length cDNA, expressed on transfected COS or CHO cells) (human) (UniProt P06734); assay: cell-based or functional assay
T1 sequence (looked up): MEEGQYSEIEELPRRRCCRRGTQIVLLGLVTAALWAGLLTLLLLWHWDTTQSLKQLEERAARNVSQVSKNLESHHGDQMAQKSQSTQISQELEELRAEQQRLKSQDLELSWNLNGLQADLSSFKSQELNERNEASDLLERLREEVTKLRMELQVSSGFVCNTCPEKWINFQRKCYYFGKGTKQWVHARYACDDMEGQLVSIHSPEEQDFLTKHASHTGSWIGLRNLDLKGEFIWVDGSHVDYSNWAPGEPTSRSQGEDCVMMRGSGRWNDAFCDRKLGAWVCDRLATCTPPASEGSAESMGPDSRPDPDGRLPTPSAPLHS

[2] = biological target: T2, ADAM9-Fc fusion protein (Mus musculus, UniProt Q61072); assay: Cleavage of oxidized insulin B chain by soluble ADAM9-Fc (MALDI-TOF); type: biochemical; conditions: 2 mM inhibitor
T2 construct: the complete extracellular domain of ADAM9 (aa 1-698); made in house; host or cells: HEK293-EBNA1 cells (pCEP4), purified on Protein A Sepharose
T2 sequence (Q61072 206-698 limits assumed): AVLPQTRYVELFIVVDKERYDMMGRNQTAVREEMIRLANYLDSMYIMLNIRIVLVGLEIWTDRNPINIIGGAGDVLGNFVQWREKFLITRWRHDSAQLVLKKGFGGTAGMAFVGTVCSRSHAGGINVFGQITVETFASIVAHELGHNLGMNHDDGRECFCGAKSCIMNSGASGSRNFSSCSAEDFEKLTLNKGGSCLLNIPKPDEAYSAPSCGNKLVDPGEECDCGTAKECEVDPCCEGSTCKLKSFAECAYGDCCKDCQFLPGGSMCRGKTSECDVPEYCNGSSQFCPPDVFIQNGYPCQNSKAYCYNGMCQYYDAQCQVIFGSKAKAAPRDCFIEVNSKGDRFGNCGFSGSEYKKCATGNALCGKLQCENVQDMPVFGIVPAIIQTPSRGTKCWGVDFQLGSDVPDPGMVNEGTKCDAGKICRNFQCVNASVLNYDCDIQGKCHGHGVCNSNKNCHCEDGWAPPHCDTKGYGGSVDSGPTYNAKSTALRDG
Source text: The estimated cleavage sites (marked by an ↓), determined by mass spectrometry (MALDI-TOF), are indicated.

[3] = biological target: oxidized human insulin B chain (human); assay: cell-based or functional assay
[4] = biological target: T1, human CD23b (full length cDNA, expressed on transfected COS or CHO cells) (human); assay: cell-based or functional assay; remark: listed apart in the source

Chain of oxidized human insulin B chain (human) (peptide, as listed by the source): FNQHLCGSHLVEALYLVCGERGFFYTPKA

decrease in surface fluorescence intensity of CD23 (FACS, cotransfected COS cells, 48 h) [1]: 35 to 40%
Molecule: ADAM9ACT (truncated cytoplasmic domain), transfected into COS cells (from UniProt Q61072 30-845) (enzyme)

inhibition of cleavage of the insulin B chain [2]: completely inhibited
Molecule: c1cnc2c(c1)ccc1cccnc12 [o-phenanthroline]

peptide cleavage (MALDI-TOF) (cleavage sites) [3]: 2
Molecule: soluble ADAM9-Fc fusion protein (ADAM9 aa 1-698 fused to human IgG1 Fc)

amount of s-CD23 in culture supernatant (ELISA), ADAM9 expression On against Off [4]: 2 to 3 times | decrease in surface bound CD23 (flow cytometry MFI, CHO clone 3, tetracycline removed) [4]: 40 to 50% | decrease in surface fluorescence intensity of CD23 (FACS, cotransfected COS cells, 48 h) [4]: 35 to 40%
B1: ADAM9 (full length cDNA, transfected into COS-7 or CHO AA8 cells) (enzyme, murine, UniProt Q61072 30-845, looked up)
chain: GRPDLEQTVHLSSYEIITPWRLTRERREALGPSSQQISYVIQAQGKQHIIHLERNTDLLPNDFVVYTYDKEGSLLSDHPNVQSHCHYRGYVEGVQNSAVAVSACFGLRGLLHLENASFGIEPLHNSSHFEHIFYPMDGIHQEPLRCGVSNRDTEKEGTQGDEEEHPSVTQLLRRRRAVLPQTRYVELFIVVDKERYDMMGRNQTAVREEMIRLANYLDSMYIMLNIRIVLVGLEIWTDRNPINIIGGAGDVLGNFVQWREKFLITRWRHDSAQLVLKKGFGGTAGMAFVGTVCSRSHAGGINVFGQITVETFASIVAHELGHNLGMNHDDGRECFCGAKSCIMNSGASGSRNFSSCSAEDFEKLTLNKGGSCLLNIPKPDEAYSAPSCGNKLVDPGEECDCGTAKECEVDPCCEGSTCKLKSFAECAYGDCCKDCQFLPGGSMCRGKTSECDVPEYCNGSSQFCPPDVFIQNGYPCQNSKAYCYNGMCQYYDAQCQVIFGSKAKAAPRDCFIEVNSKGDRFGNCGFSGSEYKKCATGNALCGKLQCENVQDMPVFGIVPAIIQTPSRGTKCWGVDFQLGSDVPDPGMVNEGTKCDAGKICRNFQCVNASVLNYDCDIQGKCHGHGVCNSNKNCHCEDGWAPPHCDTKGYGGSVDSGPTYNAKSTALRDGLLVFFFLIVPLVAAAIFLFIKRDELRKTFRKKRSQMSDGRNQANVSRQPGDPSISRPPGGPNVSRPPGGPGVSRPPGGPGVSRPPGGPGVSRPPPGHGNRFPVPTYAAKQPAQFPSRPPPPQPKISSQGNLIPARPAPAPPLYSSLT
